Experimental data reported in PMC11861601, “Multitarget mechanism of MYC inhibition by the bacterial lon protease in disease” (Scientific Reports, 2025).

B1: His-tagged full-length N-MYC (natural protein, human, UniProt P04198 1-464, looked up)
chain: MPSCSTSTMPGMICKNPDLEFDSLQPCFYPDEDDFYFGGPDSTPPGEDIWKKFELLPTPPLSPSRGFAEHSSEPPSWVTEMLLENELWGSPAEEDAFGLGGLGGLTPNPVILQDCMWSGFSAREKLERAVSEKLQHGRGPPTAGSTAQSPGAGAASPAGRGHGGAAGAGRAGAALPAELAHPAAECVDPAVVFPFPVNKREPAPVPAAPASAPAAGPAVASGAGIAAPAGAPGVAPPRPGGRQTSGGDHKALSTSGEDTLSDSDDEDDEEEDEEEEIDVVTVEKRRSSSNTKAVTTFTITVRPKNAALGPGRAQSSELILKRCLPIHQQHNYAAPSPYVESEDAPPQKKIKSEASPRPLKSVIPPKAKSLSPRNSDSEDSERRRNHNILERQRRNDLRSSFLTLRDHVPELVKNEKAAKVVILKKATEYVHSLQAEEHQLLLEKEKLQARQQQLLKKIEHARTC
notes: N-MYC, human, full length; source: bought: Signalway (SAB Signalway Antibody), Cat# AP72694
B2: Lon N-terminal domain peptide (aa 1-245) (domain or fragment, E. coli, UniProt P0A9M0 1-245, looked up)
chain: MNPERSERIEIPVLPLRDVVVYPHMVIPLFVGREKSIRCLEAAMDHDKKIMLVAQKEASTDEPGVNDLFTVGTVASILQMLKLPDGTVKVLVEGLQRARISALSDNGEHFSAKAEYLESPTIDEREQEVLVRTAISQFEGYIKLNKKIPPEVLTSLNSIDDPARLADTIAAHMPLKLADKQSVLEMSDVNERLEYLMAMMESEIDLLQVEKRIRNRVKKQMEKSQREYYLNEQMKAIQKELGEMD
notes: Lon protease, E. coli, UniProt P0A9M0, N-terminal domain, aa 1-245; also called NTD; NTD peptide; source: E. coli BL21 (DE3), purified (Strep-Tactin Sepharose)

Tests used:
Assay in all cases: SPR; Biacore X100; His-tagged ligand (~0.2 µM) captured on Ni-charged Sensor Chip NTA; Lon protein or domain injected at five dilutions; 25 °C, 30 µL/min; running buffer as printed 0.1 M HEPES, 1.5 M NaCl, 0.03 M EDTA, 0.5% v/v Surfactant P20; reference cell without nickel; 1:1 Langmuir fit
Conditions in all cases: both partners purified
[1] = target: T1, recombinant Escherichia coli Lon protease (aa 1-778) (E. coli, UniProt P0A9M0 1-778)
T1 construct: Lon protease, E. coli, UniProt P0A9M0, aa 1-778 as printed; Gene synthesised (GenScript) and cloned in a pASK-63 A+ vector (IBA); also called rLon; full-length Lon; source: E. coli BL21 (DE3), purified (Strep-Tactin Sepharose)

[2] = target: T2, His-tagged full-length c-MYC (human, UniProt P01106-1 1-439)
T2 construct: c-MYC, human, full length; see the vendor's catalogue entry; source: bought: Cusabio, CSB-EP015270HU

[3] = target: B1

T2 sequence (P01106 16-454): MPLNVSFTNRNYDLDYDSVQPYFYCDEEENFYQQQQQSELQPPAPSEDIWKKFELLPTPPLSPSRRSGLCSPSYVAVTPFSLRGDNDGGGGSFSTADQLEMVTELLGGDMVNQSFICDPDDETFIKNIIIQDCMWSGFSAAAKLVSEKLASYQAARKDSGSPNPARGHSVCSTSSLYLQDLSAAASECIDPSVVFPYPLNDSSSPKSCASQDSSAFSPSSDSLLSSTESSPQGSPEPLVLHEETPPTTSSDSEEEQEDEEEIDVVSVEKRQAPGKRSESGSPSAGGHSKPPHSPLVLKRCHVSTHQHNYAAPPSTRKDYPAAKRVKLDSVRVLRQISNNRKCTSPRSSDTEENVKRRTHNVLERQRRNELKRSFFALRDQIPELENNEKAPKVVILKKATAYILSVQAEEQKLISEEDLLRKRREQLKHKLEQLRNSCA

| Binder | binding result [1] | Kd [2] [nM] | Kd [3] [nM] |
| --- | --- | --- | --- |
| B1 | binds | – | – |
| B2 | – | < 1000 | < 1000 |
